Experimental data reported in article PMC5053618 (2016).

Target: T1, soluble EPCR ECD (truncated after Ser210) (Homo sapiens, UniProt Q9UNN8)
T1 chain: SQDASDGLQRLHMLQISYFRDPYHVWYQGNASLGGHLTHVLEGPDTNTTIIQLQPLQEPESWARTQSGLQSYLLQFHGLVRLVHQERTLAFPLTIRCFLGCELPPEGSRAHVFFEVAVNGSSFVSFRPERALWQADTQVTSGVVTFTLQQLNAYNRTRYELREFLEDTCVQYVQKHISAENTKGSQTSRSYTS
Experiment: solid-phase plate binding assay

- Kd: 24 nM
B1: activated protein C (protein)
chain 1: ANSFLEELRHSSLERECIEEICDFEEAKEIFQNVDDTLAFWSKHVDGDQCLVLPLEHPCASLCCGHGTCIDGIGSFSCDCRSGWEGRFCQREVSFLNCSLDNGGCTHYCLEEVGWRRCSCAPGYKLGDDLLQCHPAVKFPCGRPWKRMEKKRSHL
chain 2: LIDGKMTRRGDSPWQVVLLDSKKKLACGAVLIHPSWVLTAAHCMDESKKLLVRLGEYDLRRWEKWELDLDIKEVFVHPNYSKSTTDNDIALLHLAQPATLSQTIVPICLPDSGLAERELNQAGQETLVTGWGYHSSREKEAKRNRTFVLNFIKIPVVPHNECSEVMSNMVSENMLCAGILGDRQDACEGDSGGPMVASFHGTWFLVGLVSWGEGCGLLHNYGVYTKVSRYLDWIHGHIRDKEAPQKSWAP
modifications: APC biotinylated with biotin-FPR-chloromethylketone, Ca2+ and Mg2+
